From publication PMC6325239 (Nature Communications, 2019) come the findings set out here.

In this test the target is T1, Munc13-1 MUN domain (residues 933–1407, EF, 1453–1531) (rat, UniProt Q62768 933-1407; Q62768 1453-1531).
T1 construct: Munc13-1, rat, residues 933-1407; linker that replaces residues 1408-1452; Munc13-1, rat, residues 1453-1531; Used in native PAGE, crystallization and, as far as told, fluorescence anisotropy; also called the MUN domain; source: E. coli BL21 DE3, pGEX-KG, purified (glutathione Sepharose, thrombin, SEC, ion exchange)
Briefly: crystal structure; MUN crystals (20% PEG 3350, 0.1 M MES pH 5.8–6.3, 0.2 M Mg(NO3)2, 4 °C) soaked with the LR peptide at 1:4 (MUN:peptide); 2.8 Å. As to conditions: both partners purified.

B1: Syb2 linker region peptide (residues 75–93 of Syb2) (peptide)
peptide: SQFETSAAKLKRKYWWKNL
notes: synaptobrevin-2 (Syb2), residues 75-93; also called LR; Syb2 peptide; source: synthetic peptide (Scilight Biotechnology, Beijing)
Take B1: the binding result is “binds”.
